Consider 7 substances from paper PMC8965487.

The experiment addresses Cy5-labeled extracellular domain of human Angiotensin-Converting Enzyme 2 (ACE2) (UniProt Q9BYF1). Particulars: parent: est. 0; read off a plot.
In the case of “SARS-CoV-2 wild-type Spike S1 A222V; D614G”, the other: Log2 EC50 (WT/MT) was -0.1.

SARS-CoV-2 wild-type Spike S1 D614G: the other: Log2 EC50 (WT/MT) is -0.05.

Consider “SARS-CoV-2 wild-type Spike S1 HV69-70 del; N501Y; D614G”, for which the other: Log2 EC50 (WT/MT) was -0.05.

For the substance “SARS-CoV-2 wild-type Spike S1 L18F; D614G”, the other: Log2 EC50 (WT/MT) was determined as 0.35.

SARS-CoV-2 wild-type Spike S1 N234Q: the other: Log2 EC50 (WT/MT) was -0.05.

Consider “SARS-CoV-2 wild-type Spike S1 T20N; D614G”, for which the other: Log2 EC50 (WT/MT) was 0.2.

As to SARS-CoV-2 wild-type Spike S1+S2 D614G, the other: Log2 EC50 (WT/MT) amounted to 0.45.
